# T1: C-terminal recombinant protein of F3374 (437-730 amino acids, His-tag)
# T1 chain: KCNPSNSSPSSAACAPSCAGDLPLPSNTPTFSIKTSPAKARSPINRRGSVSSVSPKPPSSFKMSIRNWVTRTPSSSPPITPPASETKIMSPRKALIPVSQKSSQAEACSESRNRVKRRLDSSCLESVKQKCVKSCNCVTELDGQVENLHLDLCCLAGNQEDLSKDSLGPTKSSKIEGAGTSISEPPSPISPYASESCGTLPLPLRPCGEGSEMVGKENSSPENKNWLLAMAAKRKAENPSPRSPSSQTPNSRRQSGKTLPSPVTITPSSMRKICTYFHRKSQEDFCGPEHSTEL
# Target: T1, C-terminal recombinant protein of F3374 …
protein,measurement,value
full-length recombinant protein of AURKB (Upstate) (protein) MAQKENSYPWPYGRQTAPSGLSTLPQRVLRKEPVTPSALVLMSRSNVQPTAAPGQKVMENSSGTPDILTRHFTIDDFEIGRPLGKGKFGNVYLAREKKSHFIVALKVLFKSQIEKEGVEHQLRREIEIQAHLHHPNILRLYNYFYDRRRIYLILEYAPRGELYKELQKSCTFDEQRTATIMEELADALMYCHGKKVIHRDIKPENLLLGLKGELKIADFGWSVHAPSLRRKTMCGTLDYLPPEMIEGRMHNEKVDLWCIGVLCYELLVGNPPFESASHNETYRRIVKVDLKFPASVPMGAQDLISKLLRHNPSERLPLAQVSAHPWVRANSRRVLPPSALQSVA,"in vitro kinase assay (32P, autoradiography)",found phosphorylation of the F3374 protein by AURKB in vitro

# — US20110135647
